Consider six molecules from article PMC9909341, “TLQP-21 is a low potency partial C3aR activator on human primary macrophages” (Frontiers in Immunology, 2023).

Like-named read-outs stand apart in the source and are kept apart here.

Test [1] concerns HMDM (endogenous human C3aR). It is filed as cell-based. To be noted: 10 min stimulation at RT, n = 4 donors. From the text:
HMDMs were generated and cultured as previously described ([20]), with experiments approved by The University of Queensland Human Research Ethics Committee. Briefly, human buffy coat blood from anonymous healthy donors was obtained through the Australian Red Cross Blood Service (Brisbane, Australia). Human CD14+ monocytes were isolated from blood using Lymphoprep density centrifugation (STEMCELL, Melbourne, Australia) followed by CD14+ MACS magnetic bead separation (Miltenyi Biotec, Sydney, Australia). The isolated monocytes were differentiated for 7 days in Iscove’s Modified Dulbecco’s Medium supplemented with 10% FBS, 100 IU/ml penicillin, 100 μg/ml streptomycin and 15 ng/ml recombinant human macrophage colony stimulating factor (BioLegend, San Diego, USA) on 10 mm square dishes (Bio-strategy, Brisbane, Australia). Non-adherent cells were removed by washing with DPBS, and the adherent differentiated HMDMs were harvested by gentle scraping.
(§1) Ligand-induced ERK1/2 phosphorylation was assessed using the AlphaLISA Surefire Ultra p-ERK1/2 (Thr202/Tyr204) kit (PerkinElmer, Melbourne, Australia) following the manufacturer’s protocol as previously described ([18], [20], [22]). Briefly, CHO-K1, CHO-C3aR, CHO-C5aR1, HMDMs (50,000/well) or BMDMs (90,000/well) were seeded in tissue culture-treated 96-well plates (Corning, Corning, USA) for 24 h and serum-starved overnight. All ligand dilutions were prepared in serum-free medium (SFM) containing 0.1% BSA. For inhibition assays, cells were pre-treated with the following ligands (5 µM SB290157, or respective concentrations of hC3a, mC3a, hC5a, hTLQP-21, and mTLQP-21) or the solvent-only control for 30 min before agonist (hC3a, hTLQP-21 and mTLQP-21) addition. The concentration and identity of the ligands are described in detail in the figure legends. For stimulation, cells were treated with ligands at the indicated concentrations for 10 min at RT and then immediately lysed using AlphaLISA lysis buffer on a microplate shaker (450 rpm, 10 min). For the detection of phospho-ERK1/2 content, cell lysate (5 μL/well) was transferred to a 384-well ProxiPlate (PerkinElmer, Melbourne, Australia) and added to the donor and acceptor reaction mix (2.5 μL/well, respectively), followed by a 2-h incubation at RT in the dark. On a Tecan Spark 20M (Tecan, Männedorf, Switzerland), the plate was measured using standard AlphaLISA settings.
(§2) All experiments were conducted in triplicates and repeated on three separate occasions unless otherwise specified. Data was analysed using GraphPad software (Prism 9.1). Data from each individual repeat was normalised accordingly (as specified in the figure legends) before being combined and expressed as mean ± standard error of the mean (S.E.M.) unless otherwise described. For all dose-response studies, logarithmic concentration-response curves were plotted using combined data and analysed to determine the respective potency values. Statistical analysis was performed using two-way ANOVA with Dunnett’s post hoc analysis. Donor-matched comparisons were made for HMDM experiments. Differences were deemed significant when p < 0.05.
Figure 3 Agonistic and antagonistic activities of hTLQP-21 and mTLQP-21 in human monocyte-derived macrophages. Serum-starved HMDMs (50,000/well) were (A) stimulated with medium or respective ligands at the indicated concentrations for 10 min and then lysed, or (B) pre-treated with 5 µM SB290157 for 30 min prior to stimulation. (C) HMDMs were pre-treated with 10 μM hTLQP-21 or mTLQP-21 for 30 min before being stimulated with respective concentrations of human C3a. (D) HMDMs were pre-treated with 10 nM hC3a, 10 μM hTLQP-21 or mTLQP-21 for 30 min before being stimulated with the same concentrations of the above ligands for 10 min and then lysed. (E) HMDMs were pre-treated with 10 μM hTLQP-21 or mTLQP-21 for 30 min before being stimulated with respective concentrations of human C5a for 10 min and then lysed. […]

A further test deals with BMDM (murine C3aR). It is filed as cell-based, mouse. To be noted: wild-type C57BL/6J BMDMs, 90,000/well; 10 min stimulation at RT; AlphaLISA p-ERK1/2; n = 3 mice; C3a is recombinant mouse C3a; read-out: EC50 (pERK1/2), BMDM. The procedure:
Mouse bone marrow-derived macrophages (BMDMs) were obtained and cultured as previously described ([20], [21]). All experiments using mice were approved by the University of Queensland animal ethics committee. Wild-type and C3aR^-/- mice on a C57BL/6J genetic background (n = 3) were sacrificed by cervical dislocation. The tibia was removed and sterilised. Upon removal of both epiphyses, bone marrow cells were harvested by flushing the central cavity with complete RPMI-1640 medium using a 10 ml syringe attached to a 25-gauge needle. Cells were then cultured in complete RPMI-1640 medium (containing 10 % FBS, 100 IU/ml penicillin, 100 μg/ml streptomycin) supplemented with 100 ng/ml recombinant human macrophage colony stimulating factor on 10 mm square dishes. Mature adherent macrophages for assays were harvested on day 6-7 by gentle scraping.
as §1, §2
Figure 4 TLQP-21 triggers ERK signalling through C3aR in murine bone marrow-derive macrophages. BMDMs (90,000/well) from wildtype mice (A) or with C3aR knockout mice (B), were serum-starved overnight and then stimulated with respective ligands at the indicated concentrations for 10 min. The phospho-ERK1/2 content in the cell lysate was measured and normalised to the medium only-treated levels before being combined. Data represent mean ± S.E.M. of triplicate measurements using cells from 3 mice (n = 3).
(Alpha assays give light when donor and acceptor beads are brought close together.)

Another test has as its target T1, human C3aR (Homo sapiens, UniProt Q16581).
T1 sequence (Q16581 1-482): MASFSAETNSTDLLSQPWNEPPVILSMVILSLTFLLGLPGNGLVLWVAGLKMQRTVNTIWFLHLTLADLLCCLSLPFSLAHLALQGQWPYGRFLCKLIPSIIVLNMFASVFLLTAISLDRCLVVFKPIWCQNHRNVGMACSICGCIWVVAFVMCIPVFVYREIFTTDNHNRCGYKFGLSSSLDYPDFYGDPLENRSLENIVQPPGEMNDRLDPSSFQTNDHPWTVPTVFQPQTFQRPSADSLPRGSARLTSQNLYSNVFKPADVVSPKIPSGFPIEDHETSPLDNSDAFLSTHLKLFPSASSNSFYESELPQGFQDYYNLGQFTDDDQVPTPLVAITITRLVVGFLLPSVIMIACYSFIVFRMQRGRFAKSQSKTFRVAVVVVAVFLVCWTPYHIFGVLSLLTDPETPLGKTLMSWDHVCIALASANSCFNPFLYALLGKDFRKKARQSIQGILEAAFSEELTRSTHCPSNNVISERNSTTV
Put plainly: phospho-ERK1/2 assay in CHO-C3aR cells. Type of test: cell-based. As to conditions: efficacy relative to hC3a; fold baseline normalised; n = 3-4. How it is done:
Cell lines for this study were cultured as previously described ([20]). Non-transfected CHO-K1 cells or CHO cells stably expressing the human C3aR (CHO-C3aR; Product # ES-730-C, PerkinElmer, Melbourne, Australia) were maintained in Ham’s F12 medium containing 10% foetal bovine serum (FBS), 100 IU/ml penicillin and 100 μg/ml streptomycin, with additional 400 μg/ml G418 (In vivoGen, San Diego, USA) added for CHO-C3aR cell culture. HEK293 cells were maintained in DMEM medium containing 10% FBS, 100 IU/ml penicillin and 100 μg/ml streptomycin. All cell lines were maintained in T175 flasks (37°C, 5% CO2) and subcultured at 80-90% confluency using 0.05% trypsin-EDTA in DPBS.
as §1, §2
Figure 1 hTLQP-2 and mTLQP-21 activate ERK signalling in CHO-K1 and CHO-C3aR cells. hTLQP-21, mTLQP-21 and plasma-derived human C3a were tested in (A) non-transfected CHO-K1 or (B) CHO cells stably expressing human C3aR. CHO cells were serum-starved overnight and then stimulated with various ligands for 10 min before being lysed. The phospho-ERK1/2 content in the lysate was measured and expressed as fold-baseline before being combined. The maximum relative pERK1/2 activity induced by each ligand is shown in (C). Data represent mean ± S.E.M. of triplicate measurements from 3-4 independent experiments (n = 3-4). Two-way ANOVA with Dunnett’s post hoc analysis. *P < 0.05, ***P < 0.001, ****P < 0.0001. Ligand treated versus medium treated cells for each cell line.

For test [2], the target named is T2, Murine complement C3a receptor, endogenous on mouse bone marrow-derived macrophages (mouse (endogenous in BMDMs)) (UniProt O09047).
T2 sequence: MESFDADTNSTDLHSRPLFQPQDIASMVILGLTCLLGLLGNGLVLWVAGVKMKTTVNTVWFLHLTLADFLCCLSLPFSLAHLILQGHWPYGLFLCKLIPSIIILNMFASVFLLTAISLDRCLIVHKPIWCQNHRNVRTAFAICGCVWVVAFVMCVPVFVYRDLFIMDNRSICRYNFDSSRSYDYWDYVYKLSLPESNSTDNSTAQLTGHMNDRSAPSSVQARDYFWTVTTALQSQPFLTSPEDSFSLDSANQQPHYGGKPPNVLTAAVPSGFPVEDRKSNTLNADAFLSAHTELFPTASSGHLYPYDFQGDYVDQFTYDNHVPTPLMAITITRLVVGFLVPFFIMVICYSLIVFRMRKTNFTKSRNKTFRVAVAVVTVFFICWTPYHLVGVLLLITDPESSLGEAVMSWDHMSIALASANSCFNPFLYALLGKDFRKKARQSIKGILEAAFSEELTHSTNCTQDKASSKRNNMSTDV

Test [3] has as its target T3, Human complement C3a receptor, endogenous on human monocyte-derived macrophages (human (endogenous in HMDMs)) (UniProt Q16581).
T3 sequence: T1 sequence (Q16581 1-482)

For test [4], the target named is T4, Human complement C3a receptor, stably expressed on CHO cells (human) (UniProt Q16581).
T4 sequence: T1 sequence (Q16581 1-482)

Test [5] addresses T3, Human complement C3a receptor, endogenous on human monocyte-derived macrophages (human (endogenous in HMDMs)). This is another data set of the same source.

Sequence of Recombinant mouse C3a (P01027 671-748): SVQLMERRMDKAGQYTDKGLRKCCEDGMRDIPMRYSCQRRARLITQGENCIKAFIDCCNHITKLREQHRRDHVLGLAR

Consider `CC(C)C[C@H](NC(=O)[C@H](C)NC(=O)[C@H](CO)NC(=O)[C@@H]1CCCN1C(=O)[C@@H]1CCCN1C(=O)[C@H](CCC(N)=O)NC(=O)[C@H](CC(C)C)NC(=O)[C@@H](N)[C@@H](C)O)C(=O)N[C@@H](CCCNC(=N)N)C(=O)N[C@@H](CCCNC(=N)N)C(=O)N[C@@H](CCCNC(=N)N)C(=O)N[C@@H](Cc1c[nH]cn1)C(=O)N[C@@H](Cc1ccc(O)cc1)C(=O)N[C@@H](Cc1c[nH]cn1)C(=O)N[C@@H](Cc1c[nH]cn1)C(=O)N[C@@H](C)C(=O)N[C@@H](CC(C)C)C(=O)N1CCC[C@H]1C(=O)N1CCC[C@H]1C(=O)N[C@@H](CO)C(=O)N[C@@H](CCCNC(=N)N)C(=O)O` [hTLQP-21], for which the EC50 is 14.8 µM in test [1] (estimated, read-out: estimated EC50 (pERK1/2), HMDM) and 401 nM with BMDM (murine C3aR). Moreover, the “% C3a activity ± SE, CHO-C3aR” value on human C3aR is listed as 87.0 ± 3.5%.

For `CC(C)C[C@H](NC(=O)[C@@H](N)[C@@H](C)O)C(=O)N[C@@H](CCC(N)=O)C(=O)N1CCC[C@H]1C(=O)N1CCC[C@H]1C(=O)N[C@@H](C)C(=O)N[C@@H](CO)C(=O)N[C@@H](CO)C(=O)N[C@@H](CCCNC(=N)N)C(=O)N[C@@H](CCCNC(=N)N)C(=O)N[C@@H](CCCNC(=N)N)C(=O)N[C@@H](Cc1c[nH]cn1)C(=O)N[C@@H](Cc1ccccc1)C(=O)N[C@@H](Cc1c[nH]cn1)C(=O)N[C@@H](Cc1c[nH]cn1)C(=O)N[C@@H](C)C(=O)N[C@@H](CC(C)C)C(=O)N1CCC[C@H]1C(=O)N1CCC[C@H]1C(=O)N[C@@H](C)C(=O)N[C@@H](CCCNC(=N)N)C(=O)O` [mTLQP-21], the EC50 in test [1] (primary human macrophages, 50,000/well, AlphaLISA p-ERK1/2, read-out: EC50 (pERK1/2), HMDM) came to 2.85 µM; in the test on BMDM (murine C3aR), 96.5 nM. Further, at human C3aR, the “% C3a activity ± SE, CHO-C3aR” value is 91.8 ± 2.7%.

As for “Recombinant mouse C3a (from UniProt P01027 671-748) (ligand)”, the EC50 (nM) of ERK1/2 phosphorylation in BMDMs in test [2] stood at 8.4 nM.

In the case of “mC3a: Recombinant mouse C3a, purchased from R&D Systems”, the EC50 with BMDM (murine C3aR) was 8.4 nM.

As for TLQPPASSRRRHFHHALPPAR [Mouse TLQP-21], in test [3], the ERK signalling in HMDMs by 10 μM mTLQP-21 under the control conditions of Figure 3B, % of the C3a induced activity (% of the C3a induced activity) worked out at 40 and the mTLQP-21 induced ERK activation in HMDMs pre-treated with the C3aR antagonist SB290157 (5 μM, 30 min), % of the control level (% of the control level) turned out to be 16. The molecule also displayed an EC50 (nM) of ERK1/2 phosphorylation in CHO-C3aR cells in test [4] of 83.6 nM. The molecule also came in with an EC50 (nM) of ERK1/2 phosphorylation in HMDMs in test [5] of 2850 nM. Moreover, in test [2], the EC50 (nM) of ERK1/2 phosphorylation in BMDMs was determined as 96.5 nM.

Take TLQPPSALRRRHYHHALPPSR [Human TLQP-21]: the hTLQP-21 induced ERK activation in HMDMs pre-treated with the C3aR antagonist SB290157 (5 μM, 30 min), % of the control level (% of the control level) in test [3] amounted to 29. Also, the EC50 (nM) of ERK1/2 phosphorylation in CHO-C3aR cells in test [4] amounted to 587 nM. In test [5], this molecule gave an EC50 (nM) of ERK1/2 phosphorylation in HMDMs of 14800 nM. This molecule came in with an EC50 (nM) of ERK1/2 phosphorylation in BMDMs in test [2] of 401 nM.
